This note sets out measurements from patent US11994512B2, “Single-cell genomic methods to generate ex vivo cell systems that recapitulate in vivo biology with improved fidelity” (Massachusetts Institute of Technology, priority 2018, dated 2024).

The assay has as its system intracellular proteome of ENR+CD and ENR organoids. The assay can be described thus: LC-MS/MS TMT proteomics of ENR+CD versus ENR organoids. To be noted: for Average logFC / M1-1 Log2 Median Normalized / M1-2 Log2 Median Normalized / M2-1 Log2 Median Normalized / M2-2 Log2 Median Normalized: protein abundance, ENR+CD versus ENR organoids; for Average logFC: aggregate of the four sample pairs; for M1-1 Log2 Median Normalized: replicate M1-1; for M1-1 Log2 Median Normalized / M1-2 Log2 Median Normalized / M2-1 Log2 Median Normalized / M2-2 Log2 Median Normalized: log2 ratio; for M1-2 Log2 Median Normalized: replicate M1-2; for M2-1 Log2 Median Normalized: replicate M2-1; for M2-2 Log2 Median Normalized: replicate M2-2; for change: up = enriched in ENR+CD, down = enriched in ENR, FDR<0.05 and log fold change cut-off. The format is cell-based, C57BL/6 mice. An excerpt: Because PCs are highly secretory, protein-rich cells, Applicants sought to assess the total intracellular proteome between conditions through liquid chromatography mass spectrometry (LC-MS/MS)-based proteomics. Applicants quantified relative protein abundance across eight samples using isobaric mass tag labeling from four ENR and four ENR+CD samples (M1-1 through M2-2, first digit denotes biological donor, second digit denotes technical replicate) (FIG. 3A). Samples were processed and analyzed in a single 10-plex by LC-MS/MS (FIG. 9A).
To affirm the reproducibility of the associated proteins in the ENR+CD-enriched proteome, Applicants performed relative quantification within differentiation sets.
Mass spectrometry proteomics sample preparation, sequencing, and quantification. Organoid cell pellets were isolated from Matrigel with mechanical dissociation and washed (cold PBS 5X) to remove residual extracellular protein. Proteins were extracted from cell pellets with 8 M urea (Sigma), reduced with 5 mM DTT (Thermo Fisher Pierce) for 45 minutes, alkylated with 10 mM IAA (Sigma) for 45 minutes in the dark, and double digested with both Lysyl Endopeptidase “LysC” (Wako) and trypsin (Promega) overnight at RT. A small aliquot of cellular lysate was removed from each sample for protein quantification via the Pierce™ BCA Protein Assay Kit (Pierce). After proteolytic digestion, the samples were quenched using formic acid to a final concentration of 1.0% and subsequently desalted on 10 mg OASIS HLB solid phase columns (Waters).
The peptides were labeled with TMT-10 isobaric mass tag reagent according to manufacturer's instructions (ThermoFisher Scientific). The peptides were labeled at a 1:8 ratio of peptide to TMT reagent, followed by 1-hour incubation at RT with bench top shaking at 850 rpm. After incubation, a […] of labeled tryptic peptide was removed from each labeled condition, desalted with C18 stage tips, and analyzed via LC-MS/MS using a Thermo Fisher Q Exactive Plus Hybrid Mass Spectrometer (QE-Plus) coupled to a Thermo Fisher EASY-nLC 1000 liquid chromatograph to ensure isobaric label incorporation >95%. An additional 1.0 μg of labeled tryptic peptide was removed from each channel, mixed together, desalted on a C18 stage tip, and analyzed via LC-MS to ensure equal relative protein loads. During these quality control steps, the labeled peptides were stored, unquenched at −80° C.

B1: O35280 (protein, UniProt O35280 1-476, looked up)
chain: MAVPFVEDWDLVQTLGEGAYGEVQLAVNRITEEAVAVKIVDMKRAIDCPENIKKEICINKMLSHENVVKFYGHRREGHIQYLFLEYCSGGELFDRIEPDIGMPEQDAQRFFHQLMAGVVYLHGIGITHRDIKPENLLLDERDNLKISDFGLATVFRHNNRERLLNKMCGTLPYVAPELLKRKEFHAEPVDVWSCGIVLTAMLAGELPWDQPSDSCQEYSDWKEKKTYLNPWKKIDSAPLALLHKILVETPSARITIPDIKKDRWYNKPLNRGAKRPRATSGGMSESSSGFSKHIHSNLDFSPVNNGSSEETVKFSSSQPEPRTGLSLWDTGPSNVDKLVQGISFSQPTCPEHMLVNSQLLGTPGSSQNPWQRLVKRMTRFFTKLDADKSYQCLKETFEKLGYQWKKSCMNQVTVSTTDRRNNKLIFKINLVEMDEKILVDFRLSKGDGLEFKRHFLKIKGKLSDVVSSQKVWFPVT
modifications: full-length
As for B1, the “Average logFC” value is on record as −1.266, the “M1-1 Log2 Median Normalized” value is reported as −1.09, the “M1-2 Log2 Median Normalized” value is on record as −1.001 and the “M2-1 Log2 Median Normalized” value is −1.4995. In addition, the “M2-2 Log2 Median Normalized” value is reported as −1.475 and the change entry is “down”.

B2: B9EJ86 (protein, UniProt B9EJ86 1-889, looked up)
chain: MEAALADGEPDRSSLLGDSKDVLGPSTVVANSDEPQHLTPGKMSQRQGRDANPTPTRDLPQPSLSPASLHSQGFERGKEDISQNKDDSSLSMSKSKSESKLYNGSEKDSSTSSKLTKKESLKVQKKNYREEKKRATKELLSTITDPSVIVMADWLKIRGTLKSWTKLWCVLKPGVLLIYKTQKNGQWVGTVLLNACEIIERPSKKDGFCFKLFHPLEQSIWAVKGPKGEAVGSITQPLPSSYLIIRATSESDGRCWMDALELALKCSSLLKRTMVREGKEHDLSISSDSTHVTLYGLLRANNLHSGDNFQLNDSEIERQHFKDQDLYSDKSDKENDPEHDESDNEVLGKSEESDTDTSERQDDSYIDPEPVEPLKETTYMEQSHEELGEAGEASQTETVSEENKSLIWTLLKQVRPGMDLSRVVLPTFILEPRSFLDKLSDYYYHADFLSEAALEENPYFRLKKVVKWYLSGFYKKPKGLKKPYNPILGETFRCLWIHPRTNSKTFYIAEQVSHHPPISAFYVSNRKDGFCLSGSILAKSKFYGNSLSAILEGEARLTFLNRGEDYVMTMPYAHCKGILYGTMTLELGGTVNITCQKTGYSAILEFKLKPFLGSSDYVNQISGKLKLGKEVLATLEGHWDSEVFINDKKTDNSEIFWNPTPDIKQWRLIRHTVKFEEQDDFESEKLWQRVTKAINAKDQTEATQEKYVLEEAQRQAARDRKTKTQEWVCKLFELDPLTGEWHYKFSDTRPWDPLNDMIQFEKDGVIQTKVKHRTPMVSVPKMKHKPTRQQKKVVKGYSSPEPDIQDSSGSEAQSVKPSTRRKKGIDLGDIQSSIESIKQTQEEIKRNIMALRNHLLSSTPATDYFLQQKDYFVIFLLILLQVIINFIFK
modifications: full-length
Turning to B2, the “Average logFC” value was found to be 1.24, the “M1-1 Log2 Median Normalized” value is recorded as 1.242, the “M1-2 Log2 Median Normalized” value is listed as 1.864 and the “M2-1 Log2 Median Normalized” value is listed as 1.0905. The “M2-2 Log2 Median Normalized” value turned out to be 0.802 and the change entry is recorded as “up”.

B3: O09010 (protein, UniProt O09010 1-378, looked up)
chain: MLQRCGRRLLLALVGALLACLLVLTADPPPTPMPAERGRRALRSLAGSSGGAPASGSRAAVDPGVLTREVHSLSEYFSLLTRARRDADPPPGVASRQGDGHPRPPAEVLSPRDVFIAVKTTRKFHRARLDLLFETWISRHKEMTFIFTDGEDEALAKLTGNVVLTNCSSAHSRQALSCKMAVEYDRFIESGKKWFCHVDDDNYVNLRALLRLLASYPHTQDVYIGKPSLDRPIQATERISEHKVRPVHFWFATGGAGFCISRGLALKMGPWASGGHFMSTAERIRLPDDCTIGYIVEALLGVPLIRSGLFHSHLENLQQVPTTELHEQVTLSYGMFENKRNAVHIKGPFSVEADPSRFRSVHCHLYPDTPWCPRSAIF
modifications: full-length
Turning to B3, the “Average logFC” value is 1.464, the “M1-1 Log2 Median Normalized” value is 1.443, the “M1-2 Log2 Median Normalized” value was determined as 1.37 and the “M2-1 Log2 Median Normalized” value is listed as 1.4835. Further, the “M2-2 Log2 Median Normalized” value is recorded as 1.56 and the change entry is “up”.

B4: E9Q5C9 (protein, UniProt E9Q5C9 1-702, looked up)
chain: MADTGLRRVVPSDLYPLVLRFLRDSQLSEVASKFAKATGATQQDANASSLLDIYSFWLNRSTKAPKVKLQSNGPVTKKAKKETSSSDSSEDSSEDEDKKAQGLPTQKAAAQVKRASVPQHAGKAAAKASESSSSEESSEEEEEDKKKKPVQQKAAKPQAKAVRPPAKKAESSESDSDSDSDSSSEEETPQTQKPKAAVAAKAQTKAEAKPGTPAKAQPKVANGKAAASSSSSSSSDDSEEEKKAAAPPKKTVPKKQVVAKAPVKVAAAPTQKSSSSEDSSSEEEEGQRQPMKKKAGPYSSVPPPSVPLPKKSPGTQAPKKAAAQTQPADSSDDSSDDSDSSSEEEKKPPAKTVVSKTPAKAAPVKKKAESSSDSSDSDSSEDEAPAKPVSTTKSPKPAVTPKPSAAKAVTTPKQPAGSNQKPQSRKADSSSSEEESSSSEEEEASKKSATTPKAKVTAKAAPAKQAPQAAGDSSSDSDSSSSEEEEKTPKPPAKKKAAGGAVSTPAPGKKAEAKSSSSSSSSSSEDSSEEEKKKKPKATTPKIQASKANGTPASLNGKAAKESEEEEEEEETEEKKKAAGTKPGSGKKRKQNETADEATTPQAKKVKLETPNTFPKRKKGERRASSPFRRVREEEIEVDSRVADNSFDAKRGAAGDWGERANQVLKFTKGKSFRHEKTKKKRGSYRGGSISVQVNSVKFDSE
modifications: full-length
On to B4, for which the “Average logFC” value was −1.884, the “M1-1 Log2 Median Normalized” value is recorded as −1.968, the “M1-2 Log2 Median Normalized” value was −1.821 and the “M2-1 Log2 Median Normalized” value is −1.5075. Further, the “M2-2 Log2 Median Normalized” value was −2.239 and the change entry was “down”.

B5: O09037 (protein, UniProt O09037 1-175, looked up)
chain: MLPHLVLNSISWMLLSCLLFVFQVQGEDFQKEVPSPRTSCPMGYKAYRSHCYALVMTPKSWFQADLVCQKRPSGHLVSILSGGEASFVSSLVNGRVDNYQDIWIGLHDPTMGQQPNGGGWEWSNSDVLNYLNWDGDPSSTVNRGHCGSLTASSGFLKWGDYYCDGTLPFVCKFKQ
modifications: full-length
On to B5, for which the “Average logFC” value was −1.611, the “M1-1 Log2 Median Normalized” value is given as −1.64, the “M1-2 Log2 Median Normalized” value was −2.141 and the “M2-1 Log2 Median Normalized” value was −1.5875. For the same molecule, the “M2-2 Log2 Median Normalized” value is given as −1.077 and the change entry is given as “down”.

B6: D3YUE4 (protein, UniProt D3YUE4 1-279, looked up)
chain: MAACAGGPGSWSENILKYFLRNNQITAEDGAEILWSHAANHKSQMNEALKSAAHMIEADVLLPSDGSEHGQPIMAHPPETSSDNTLQEWLAEVVKSNKGIKLDFKSLAAVRASMLFLDNMKQHLQRPVWINADILPGPNGSSKVVDAKAFLDTVTSFFPDVTFSLGWTTGWHPEKVNEGYSWSMVKEMDYICSELTQPVTFPVRAALVRQSCPQLLWLLTKSNRYSLTVWTGKDDIYSTEDLLYIRDYFNKTQVFYDISEPQNHEFKQAIGIRGHSLRI
modifications: full-length
On to B6, for which the “Average logFC” value is −1.165, the “M1-1 Log2 Median Normalized” value was −0.678, the “M1-2 Log2 Median Normalized” value is recorded as −1.053 and the “M2-1 Log2 Median Normalized” value is reported as −1.3175. In addition, the “M2-2 Log2 Median Normalized” value is −1.611 and the change entry is reported as “down”.

B7: O08529 (protein, UniProt O08529 1-700, looked up)
chain: MAGIAIKLAKDREAAEGLGSHERAIKYLNQDYETLRNECLEAGALFQDPSFPALPSSLGYKELGPYSSKTRGIEWKRPTEICADPQFIIGGATRTDICQGALGDCWLLAAIASLTLNEEILARVVPPDQSFQENYAGIFHFQFWQYGEWVEVVVDDRLPTKDGELLFVHSAEGSEFWSALLEKAYAKINGCYEALSGGATTEGFEDFTGGIAEWYELRKPPPNLFKIIQKALEKGSLLGCSIDITSAADSEAVTYQKLVKGHAYSVTGAEEVESSGSLQKLIRIRNPWGQVEWTGKWNDNCPSWNTVDPEVRANLTERQEDGEFWMSFSDFLRHYSRLEICNLTPDTLTCDSYKKWKLTKMDGNWRRGSTAGGCRNYPNTFWMNPQYLIKLEEEDEDEEDGERGCTFLVGLIQKHRRRQRKMGEDMHTIGFGIYEVPEELTGQTNIHLGKNFFLTTRARERSDTFINLREVLNRFKLPPGEYVLVPSTFEPHKDGDFCIRVFSEKKADYQAVDDEIEANIEEIDANEEDIDDGFRRLFVQLAGEDAEISAFELQTILRRVLAKRQDIKSDGFSIETCKIMVDMLDEDGSGKLGLKEFYILWTKIQKYQKIYREIDVDRSGTMNSYEMRKALEEAGFKLPCQLHQVIVARFADDELIIDFDNFVRCLVRLETLFKIFKQLDPENTGTIQLNLASWLSFSVL
modifications: full-length
For the molecule B7, the “Average logFC” value is reported as 1.309, the “M1-1 Log2 Median Normalized” value was 1.421, the “M1-2 Log2 Median Normalized” value is recorded as 1.297 and the “M2-1 Log2 Median Normalized” value is 1.1725. Also, the “M2-2 Log2 Median Normalized” value is given as 1.347 and the change entry was “up”.
